Like-named read-outs stand apart in the source and are kept apart here.
Assays:
Assay in all cases: AUC
[1] = target: myristoylated HIV-1 matrix-capsid, myr(+)MACA (HIV-1 (pNL4-3 isolate))
[2] = target: myristoylated HIV-1 matrix-capsid, myr(+)MACA (HIV-1 (pNL4-3 isolate)); remark: listed apart in the source
[3] = target: myristoylated HIV-1 matrix-capsid, myr(+)MACA (HIV-1 (pNL4-3 isolate)); remark: listed apart in the source
[4] = target: myristoylated HIV-1 matrix-capsid, myr(+)MACA (HIV-1 (pNL4-3 isolate)); remark: listed apart in the source
[5] = target: unmyristoylated HIV-1 matrix-capsid, myr(−)MACA (HIV-1 (pNL4-3 isolate))
[6] = target: unmyristoylated HIV-1 matrix-capsid, myr(−)MACA (HIV-1 (pNL4-3 isolate)); remark: listed apart in the source
[7] = target: unmyristoylated HIV-1 matrix-capsid, myr(−)MACA (HIV-1 (pNL4-3 isolate)); remark: listed apart in the source
[8] = target: myristoylated HIV-1 matrix protein, myr(+)MA (HIV-1)
[9] = target: myristoylated HIV-1 matrix protein, myr(+)MA (HIV-1); remark: listed apart in the source
[10] = target: myristoylated HIV-1 matrix protein, myr(+)MA (HIV-1); remark: listed apart in the source
[11] = target: myr(+)MACA-W184A/M185A (HIV-1 (pNL4-3 isolate))
[12] = target: myr(+)MACA-W184A/M185A (HIV-1 (pNL4-3 isolate)); remark: listed apart in the source

Substance “myristoylated HIV-1 matrix-capsid, myr(+)MACA (domain or fragment)” has a stoichiometry N [1] of 3, a stoichiometry N [2] of 3 and a Ka [3] of 33000 M⁻¹. The fraction in the 4.3S (major) peak of c(s) [3] was 70%, the stoichiometry N [3] was 2 and the stoichiometry N [4] was 3.

Work on “unmyristoylated HIV-1 matrix-capsid, myr(−)MACA (domain or fragment)” yielded a Ka [5] of 33000 M⁻¹, a stoichiometry N [5] of 2 and a stoichiometry N [6] of 2. It also gave a Ka [7] of 110000 M⁻¹ and a stoichiometry N [7] of 2.

Substance “myristoylated HIV-1 matrix protein, myr(+)MA (natural protein)” has a stoichiometry N [8] of 3, a fraction in the 2.4S (trimer) peak of c(s) [9] of 30% and a stoichiometry N [9] of 3. For the same substance, the stoichiometry N [10] was 3.

For “myr(+)MACA-W184A/M185A (domain or fragment)”, the stoichiometry N [11] was 2 and the stoichiometry N [12] was 2.

Reference: paper PMC3032006
